The source of these data is paper PMC2841647 (PLoS ONE, 2010).

Data set [1] deals with mice. Nature of the data set: Forced swim test (FST). As to conditions: acute treatment. It is filed as in vivo, mouse. The method, then: (§1) Mice were treated as described above before being subjected to behavioral studies. Predictive estimation for anxiolytic properties of tat-cyclotraxin-B was assessed using open field and elevated plus-maze (EPM). Antidepressant-like action of tat-cyclotraxin-B was assessed with the forced-swim test (FST). Effects of acute treatment with tat-cyclotraxin-B on spontaneous locomotion, exploration and reactivity to a novel open field was assessed in plexiglas activity chambers (Med Associates; 45×45×31 cm). Mice were placed into the center of the open field, and activity was recorded for 30 min. Testing took place under bright ambient light conditions to increase the anxiety component of the center areas of the field (defined as the central 15×15 cm portion). Mice subjected to EPM received a double 90-interval i.v. injection of tat-cyclotraxin-B or saline buffer before being placed on the platform of the EPM and assessed for 5 min (26×5×36 cm). The diazepam control group consisted of saline buffer double-treated mice that further received a 30-min i.p. injection of diazepam (1 mg/kg). Mice were assessed for number of entries and amount of time spent in open versus closed arms. The FST procedure was applied to treated mice as described by Porsolt et al. (see ref. [60]). Mice were dropped individually into glass cylinder (height, 25 cm; diameter, 10 cm) containing 10 cm water height, maintained at 23–25°C. Animals were tested for a total of 6 min. The total time of swimming, the number of climbing attempts and the time of immobility was recorded during the last 4 min of the session, after 2 min of habituation. The paroxetine control group consisted of saline buffer double-treated mice that further received a 30-min i.p. injection of paroxetine (2 mg/kg). Behaviors were recorded on videotape and scored blind.

Data set [2] has as its system mice. Nature of the data set: Open field. It is filed as in vivo, mouse. The method, then: as §1, with “The FST procedure was applied to treated mice as described by Porsolt et al. (see ref. [60]). Mice were dropped individually into glass cylinder (height, 25 cm; diameter, 10 cm) containing 10 cm water height, maintained at 23–25°C. Animals were tested for a total of 6 min.” left out, “The paroxetine control group consisted of saline buffer double-treated mice that further received a 30-min i.p. injection of paroxetine (2 mg/kg).” left out

The target in data set [3] is T1, phospho(Y816)-TrkB (Mus musculus, UniProt P15209).
T1 construct: KIRA-ELISA analysis of brain TrkB receptors from mice; from tissue; host or cells: adult Swiss mouse brain, 300-µm coronal slices
The experiment in a line: Western blot with phospho(Y816)-TrkB antibody after intravenous injection. It is filed as in vivo. The following applies: mice, i.v. injection, vs tat-empty. On the procedure: Cell lysates were prepared in boiling SDS (2%, w/v) as described previously and subjected to SDS-PAGE. Detection and analysis of eIF4E, MAPK and Akt phosphorylation were done using anti-total and -phospho-eIF4E antibodies (1∶1000, Cell Signaling), anti-total and -phospho-MAPK antibodies (1∶1000, Cell Signaling) or anti-total and–phospho (Ser473) Akt antibodies (1∶1000, Santa Cruz; 1∶1000, Cell Signaling, respectively), respectively. For TrkB expression analysis, cortical neurons were cultured for eight days and TetOn-rhTrkB cells were incubated overnight with doxycycline. Cells were solubilized as for KIRA-ELISA assays and lysates were centrifuged at 14,000×g for 20 min at 4°C. Cleared supernatant was collected and proteins were subjected to SDS-PAGE. Detection of rhTrkB-ECFP and neuronal mouse TrkB were performed using anti-GFP polyclonal antibody (1∶5000, Clontech) and anti-rodent TrkB polyclonal antibody (1 µg/ml, Upstate), respectively. TrkB phosphorylation was quantified using anti-phospho-TrkB antibody (kindly provided by M.V. Chao). Proteins were visualized using appropriate HRP-conjugated secondary antibodies and films were quantified by densitometry.
Supplementary file pone.0009777.s009.tif: Figure S8 Protocol for in vivo KIRA-ELISA analysis after intravenous injection. […] Bands intensity have been quantified (down) Data are mean ± s.e.m. […]

Data set [4] has as its target T2, TrkB in brain slices (Mus musculus, UniProt P15209).
T2 construct: KIRA-ELISA analysis of brain TrkB receptors from mice; from tissue; host or cells: adult Swiss mouse brain, 300-µm coronal slices
Nature of the data set: KIRA-ELISA in brain slices incubated with peptide. It is filed as cell-based. As to conditions: 1 µM directly added to the slice, BDNF 4 nM. The method, then: TrkB activity was quantified using the previously described KIRA-ELISA assay with slight modifications. Cortical neurons were seeded on polyornithin-coated flat-bottom 96-well culture plates (12×10^4 cells per well) and cultured eight days at 37°C in 5% CO2. TetOn-rhTrkB cells were seeded on flat-bottom 96-well culture plates (4×10^4 cells per well) and incubated overnight with 1000 ng/ml doxycycline (Figs. S1,S2) except when indicated. Fluorescence levels in TetOn-rhTrkB cells were verified before each assay. […] Solubilized membranes were transferred for 2 h at room temperature onto ELISA microtiter plate (Nunc Maxisorp) pre-coated overnight at 4°C with appropriate antibodies [polyclonal anti-GFP (1∶5000, Clontech) for TetOn-rhTrkB, polyclonal anti-TrkB (1 µg/ml, Upstate) for cultured neurons and brain slices, for phosphorylation assays; monoclonal anti-GFP (1∶3000, Chemicon) for TetOn-rhTrkB, monoclonal anti-TrkB (1∶1000, BD Biosciences) for cultured neurons and brain slices, for total TrkB quantification]. […] Absorbance was read at 450 nm after addition of 3,3′,5′,5-tetramethyl-benzidine substrate (Sigma) and acidification with 1N hydrochloric acid.

Data set [5] has as its system mice. The experiment in a line: Elevated plus-maze (EPM). As to conditions: vs saline. It is filed as in vivo, mouse. The method, then: as §1
Data set [6] in a line: Brain localization after intravenous injections (immunohistochemistry). It is filed as in vivo, mouse. As to conditions: mice; four hours after the last intravenous injection; cortex, hippocampus, striatum, nucleus accumbens. The method, then: Mice were injected twice with 200 µg of biotinylated tat-cyclotraxin-B. […] Brains were postfixed for 1 h in 4% paraformaldehyde and cut in 40-µm sections with a vibratome. Sections obtained at the same levels as for in vivo KIRA-ELISA analysis (see Fig. S8) were rinsed in PBS and incubated in TBS containing 0.05% Tween-20 with VectaStain ABC Elite kit (Vector Laboratories). […] Non-injected mice were used as negative controls for endogenous biotin.

T2 sequence (P15209 32-821): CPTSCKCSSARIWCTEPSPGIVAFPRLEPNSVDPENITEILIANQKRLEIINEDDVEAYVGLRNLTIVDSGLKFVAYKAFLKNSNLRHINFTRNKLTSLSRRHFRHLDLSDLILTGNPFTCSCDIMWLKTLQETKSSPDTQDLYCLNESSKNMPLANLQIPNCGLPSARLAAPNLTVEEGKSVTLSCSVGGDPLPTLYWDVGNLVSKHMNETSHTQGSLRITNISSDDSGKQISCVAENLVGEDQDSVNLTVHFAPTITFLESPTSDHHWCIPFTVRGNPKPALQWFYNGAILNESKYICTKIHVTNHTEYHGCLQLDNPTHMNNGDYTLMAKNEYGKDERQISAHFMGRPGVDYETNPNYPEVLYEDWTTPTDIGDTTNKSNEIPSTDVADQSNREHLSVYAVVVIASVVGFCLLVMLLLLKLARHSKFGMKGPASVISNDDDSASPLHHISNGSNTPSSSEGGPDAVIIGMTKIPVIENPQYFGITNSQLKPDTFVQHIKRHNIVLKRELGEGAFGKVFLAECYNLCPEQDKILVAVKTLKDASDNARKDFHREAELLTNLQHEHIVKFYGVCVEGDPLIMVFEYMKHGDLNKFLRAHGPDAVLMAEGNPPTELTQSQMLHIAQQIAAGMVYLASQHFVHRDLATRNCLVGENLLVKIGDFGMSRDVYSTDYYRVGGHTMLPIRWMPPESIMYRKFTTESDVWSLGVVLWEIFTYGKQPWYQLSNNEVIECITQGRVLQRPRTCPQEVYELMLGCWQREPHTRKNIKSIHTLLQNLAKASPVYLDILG
T1 sequence (P15209 32-821): as above

Take “YGRKKRRQRRRCNPMGYTKEGC [tat-cyclotraxin-B]”: the FST swimming capabilities entry in data set [1] is reported as “not affected”. Further, in data set [1] (vs saline), the FST climbing attempts result was “not observed” and the “FST time of immobility” value is recorded as “not observed”. In addition, the “locomotor activity in open field” value in data set [2] (30 min) was “did not show any alterations”. Moreover, the “time in the center compartment of open field” value in data set [2] (compared to saline controls) was “significantly more time”. In addition, the “reduction in phospho(Y816)-TrkB band intensity” value in data set [3] was 37.7±4.7%. For the same sequence, in data set [4], the “decrease in TrkB activity, slice incubation” value is reported as 52.0±3.9%. For the same sequence, in data set [5], the “EPM number of entries in open arms” value was “significantly increased” and the “EPM time spent in open arms” value is “significantly increased”. Moreover, in data set [6], the “detection in brain after intravenous injection” value is listed as “detected in many brain structures”.
